Results on 41 sequences are retold here after the supplement of paper PMC11780869.

The data set has as its system Bacillus subtilis. Kind of data set: cleaved RNA product abundance (RNA/gDNA barcode ratio) relative to median wild-type variant (ratio to wild type); higher = more accumulation of the downstream cleavage product. The settings on record: cleavage site: cggR-gapA (positions -7 to +36 mutated). In short, it runs like this: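 Cleaved product abundance for each construct is its RNA-to-gDNA barcode ratio, scaled to the median construct carrying the unmutated site. Cleaved RNA was isolated on a gel, reverse transcribed and barcode-sequenced, with genomic DNA barcodes sequenced alongside and UMIs collapsed. The reporters were truncated aprE or tetM mRNAs with barcoded, mutagenized RNase Y cleavage-site windows integrated into the B. subtilis chromosome, and cultures grew in LB at 37°C from OD600 0.0003 to 0.3.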

The mark [1] stands for this setting: experiment (reporter, strain, medium): exp 4a: truncated aprE reporter, strain BJT201 with 2% xylose (RNase J1 expressed).
[2] abbreviates: experiment (reporter, strain, medium): exp 2b: truncated aprE reporter, strain BJT200.

On to “ACAGACGAAGGAGCCGCAAAGATGTTATTAAGGGAAGAATAATCCCTCAATATAAATATCTCTCACTTATTTAAA”, for which the “cleaved RNA product abundance” value under setting [1] is 0.51.
With “ACAGACGAAGGAGCCGCAAAGATGTTATTAAGGGATAAATAATCCCTCAATATAAATATCTCTCACTTATTTAAA”, the “cleaved RNA product abundance” value under setting [1] came to 0.906.
In the case of “ACAGACGAAGGAGCCGCAAAGATGTTATTAAGGGATCAATAATCCCTCAATATAAATATCTCTCACTTATTTAAA”, the “cleaved RNA product abundance” value worked out at 0.708 under setting [2] and 1.08 under setting [1].
The corresponding values for “ACAGACGAAGGAGCCGCAAAGATGTTATTAAGGGATGAAAAATCCCTCAATATAAATATCTCTCACTTATTTAAA” are 0.583 and 0.733.
For the sequence “ACAGACGAAGGAGCCGCAAAGATGTTATTAAGGGATGAATAAACCCTCAATATAAATATCTCTCACTTATTTAAA”, the “cleaved RNA product abundance” value under setting [1] is 0.275.
For the sequence “ACAGACGAAGGAGCCGCAAAGATGTTATTAAGGGATGAATAATACCTCAATATAAATATCTCTCACTTATTTAAA”, the “cleaved RNA product abundance” value is 0.128 under setting [2] and 0.142 under setting [1].
On to “ACAGACGAAGGAGCCGCAAAGATGTTATTAAGGGATGAATAATCACTCAATATAAATATCTCTCACTTATTTAAA”, for which the “cleaved RNA product abundance” value under setting [1] amounted to 0.181.
With “ACAGACGAAGGAGCCGCAAAGATGTTATTAAGGGATGAATAATCCATCAATATAAATATCTCTCACTTATTTAAA”, the “cleaved RNA product abundance” value was 0.171 under setting [2] and 0.311 under setting [1].
The corresponding values for “ACAGACGAAGGAGCCGCAAAGATGTTATTAAGGGATGAATAATCCCACAATATAAATATCTCTCACTTATTTAAA” are 0.227 and 0.248.
On to “ACAGACGAAGGAGCCGCAAAGATGTTATTAAGGGATGAATAATCCCTAAATATAAATATCTCTCACTTATTTAAA”, for which the “cleaved RNA product abundance” value under setting [1] amounted to 1.11.
For “ACAGACGAAGGAGCCGCAAAGATGTTATTAAGGGATGAATAATCCCTCAAAATAAATATCTCTCACTTATTTAAA”, under setting [1], the “cleaved RNA product abundance” value amounted to 0.502.
For “ACAGACGAAGGAGCCGCAAAGATGTTATTAAGGGATGAATAATCCCTCAACATAAATATCTCTCACTTATTTAAA”, the “cleaved RNA product abundance” value under setting [1] came out at 0.223.
For the sequence “ACAGACGAAGGAGCCGCAAAGATGTTATTAAGGGATGAATAATCCCTCAATATAAATAACTCTCACTTATTTAAA”, the “cleaved RNA product abundance” value is, setting by setting: under setting [2], 0.767; under setting [1], 0.897.
For the sequence “ACAGACGAAGGAGCCGCAAAGATGTTATTAAGGGATGAATAATCCCTCAATATAAATACCTCTCACTTATTTAAA”, the “cleaved RNA product abundance” value under setting [2] was 0.71.
For “ACAGACGAAGGAGCCGCAAAGATGTTATTAAGGGATGAATAATCCCTCAATATAAATATCTCTCACTTATTTAAA”, the “cleaved RNA product abundance” value worked out at 0.938 under setting [2]; 0.996 under setting [1]; 1.01 (experiment (reporter, strain, medium): exp 6: tetM reporter, strain 168).
Turning to “ACAGACGAAGGAGCCGCAAAGATGTTATTAAGGGATGAATAATCCCTCAATATACATATCTCTCACTTATTTAAA”, the “cleaved RNA product abundance” value under setting [1] turned out to be 0.483.
On the same count and under the same terms, under “ACAGACGAAGGAGCCGCAAAGATGTTATTAAGGGATGAATAATCCCTCAATATATATATCTCTCACTTATTTAAA” stands 0.975; under “ACAGACGAAGGAGCCGCAAAGATGTTATTAAGGGATGAATAATCCCTCAATCTAAATATCTCTCACTTATTTAAA”, 0.0528.
Consider “ACAGACGAAGGAGCCGCAAAGATGTTATTAAGGGATGAATAATCCCTCACTATAAATATCTCTCACTTATTTAAA”, for which the “cleaved RNA product abundance” value under setting [2] amounted to 0.166.
As to “ACAGACGAAGGAGCCGCAAAGATGTTATTAAGGGATGAATAATCCCTCATTATAAATATCTCTCACTTATTTAAA”, the “cleaved RNA product abundance” value under setting [1] was found to be 0.411.
With “ACAGACGAAGGAGCCGCAAAGATGTTATTAAGGGATGAATAATCCCTCGATATAAATATCTCTCACTTATTTAAA”, the “cleaved RNA product abundance” value under setting [2] was 0.352.
Turning to “ACAGACGAAGGAGCCGCAAAGATGTTATTAAGGGATGAATAATCCCTCTATATAAATATCTCTCACTTATTTAAA”, under setting [1], the “cleaved RNA product abundance” value amounted to 0.447.
On to “ACAGACGAAGGAGCCGCAAAGATGTTATTAAGGGATGAATAATCCCTGAATATAAATATCTCTCACTTATTTAAA”, for which the “cleaved RNA product abundance” value under setting [1] is 0.628.
Consider “ACAGACGAAGGAGCCGCAAAGATGTTATTAAGGGATGAATAATCCGTCAATATAAATATCTCTCACTTATTTAAA”, for which the “cleaved RNA product abundance” value under setting [2] is 0.113 and the “cleaved RNA product abundance” value under setting [1] was found to be 0.2.
For “ACAGACGAAGGAGCCGCAAAGATGTTATTAAGGGATGAATAATCCTTCAATATAAATATCTCTCACTTATTTAAA”, the “cleaved RNA product abundance” value runs as follows: under setting [2], 0.366; under setting [1], 0.613.
For “ACAGACGAAGGAGCCGCAAAGATGTTATTAAGGGATGAATAATCTCTCAATATAAATATCTCTCACTTATTTAAA”, the “cleaved RNA product abundance” value under setting [1] was determined as 0.874.
Still for that read-out and setting: the figure for “ACAGACGAAGGAGCCGCAAAGATGTTATTAAGGGATGAATAATGCCTCAATATAAATATCTCTCACTTATTTAAA” is 0.186.
Same read-out and setting: under “ACAGACGAAGGAGCCGCAAAGATGTTATTAAGGGATGAATAATTCCTCAATATAAATATCTCTCACTTATTTAAA” stands 0.89.
With “ACAGACGAAGGAGCCGCAAAGATGTTATTAAGGGATGAATACTCCCTCAATATAAATATCTCTCACTTATTTAAA”, under setting [2], the “cleaved RNA product abundance” value stood at 0.648.
As for “ACAGACGAAGGAGCCGCAAAGATGTTATTAAGGGATGAATATTCCCTCAATATAAATATCTCTCACTTATTTAAA”, the “cleaved RNA product abundance” value runs as follows: under setting [2], 0.623; under setting [1], 0.556.
Take “ACAGACGAAGGAGCCGCAAAGATGTTATTAAGGGATGAATGATCCCTCAATATAAATATCTCTCACTTATTTAAA”: under setting [1], the “cleaved RNA product abundance” value was found to be 0.51.
For the sequence “ACAGACGAAGGAGCCGCAAAGATGTTATTAAGGGATGCATAATCCCTCAATATAAATATCTCTCACTTATTTAAA”, the “cleaved RNA product abundance” value reads like this: under setting [2], 0.859; under setting [1], 1.1.
Turning to “ACAGACGAAGGAGCCGCAAAGATGTTATTAAGGGATTAATAATCCCTCAATATAAATATCTCTCACTTATTTAAA”, the “cleaved RNA product abundance” value under setting [1] came to 0.703.
Regarding “ACAGACGAAGGAGCCGCAAAGATGTTATTAAGGGGTGAATAATCCCTCAATATAAATATCTCTCACTTATTTAAA”, the “cleaved RNA product abundance” value under setting [2] was determined as 0.656.
Regarding “ACAGACGAAGGAGCCGCAAAGATGTTATTAAGGGTTGAATAATCCCTCAATATAAATATCTCTCACTTATTTAAA”, the “cleaved RNA product abundance” value under setting [2] was determined as 0.251.
In the case of “ACAGACGAAGGAGCCGCAAAGATGTTATTAAGGTATGAATAATCCCTCAATATAAATATCTCTCACTTATTTAAA”, the “cleaved RNA product abundance” value under setting [1] came to 0.161.
For “ACAGACGAAGGAGCCGCAAAGATGTTATTAAGTGATGAATAATCCCTCAATATAAATATCTCTCACTTATTTAAA”, the “cleaved RNA product abundance” value by setting is: under setting [2], 0.1; under setting [1], 0.11.
Take “ACAGACGAAGGAGCCGCAAAGATGTTATTAATGGATGAATAATCCCTCAATATAAATATCTCTCACTTATTTAAA”: the “cleaved RNA product abundance” value is, setting by setting: under setting [2], 0.131; under setting [1], 0.135.
For “ACAGACGAAGGAGCCGCAAAGATGTTATTACGGGATGAATAATCCCTCAATATAAATATCTCTCACTTATTTAAA” the same measures were 0.369 and 0.401.
Turning to “ACAGACGAAGGAGCCGCAAAGATGTTATTATGGGATGAATAATCCCTCAATATAAATATCTCTCACTTATTTAAA”, the “cleaved RNA product abundance” value under setting [1] came out at 0.343.
Consider “ACAGACGAAGGAGCCGCAAAGATTTTATTAAGGGATGAATAATCCCTCAATATAAATATCTCTCACTTATTTAAA”, for which the “cleaved RNA product abundance” value is, setting by setting: under setting [2], 1.07; under setting [1], 0.974.
